Laboratory results: PMC10944878, “Formation of HopQ1:14-3-3 complex in the host cytoplasm modulates nuclear import rate of Pseudomonas syringae effector in Nicotiana benthamiana cells” (Frontiers in Plant Science, 2024)

Assays:
[1] = biological target: T1, HopQ1-6xHis, in vitro phosphorylated by AtCPK3 (Pseudomonas syringae pv. phaseolicola …, UniProt Q48BD8 1-447, in vitro phosphorylated by AtCPK3; phosphorylated residues of this sample not given); assay: SEC-MALS; phosphorylated HopQ1 mixed with Nt14-3-3a at a 1:2 mass ratio, 2 h at 4°C; Superdex 200 10/300GL, 100 mM Tris-HCl pH 8.0, 150 mM NaCl, 5 mM DTT; details: both partners purified
T1 construct: HopQ1 (Hrp outer protein Q), type three effector of Pseudomonas syringae pv. phaseolicola 1448A, GenBank AAZ37975.1; also called phosphorylated HopQ1; recombinant HopQ1; source: phosphorylated in vitro by GST-AtCPK3, then ion-exchange and size-exclusion chromatography
T1 sequence: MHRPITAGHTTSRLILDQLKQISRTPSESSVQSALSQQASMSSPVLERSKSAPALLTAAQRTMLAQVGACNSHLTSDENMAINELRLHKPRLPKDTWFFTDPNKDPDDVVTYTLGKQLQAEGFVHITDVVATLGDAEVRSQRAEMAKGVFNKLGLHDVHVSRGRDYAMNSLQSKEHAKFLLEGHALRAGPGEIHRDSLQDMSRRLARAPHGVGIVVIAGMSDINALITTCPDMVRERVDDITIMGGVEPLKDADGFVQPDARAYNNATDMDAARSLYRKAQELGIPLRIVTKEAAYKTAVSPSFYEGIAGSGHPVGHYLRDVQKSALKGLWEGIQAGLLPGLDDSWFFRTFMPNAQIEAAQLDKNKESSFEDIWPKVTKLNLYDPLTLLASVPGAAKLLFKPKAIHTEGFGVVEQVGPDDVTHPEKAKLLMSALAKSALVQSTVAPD

[2] = biological target: the molecule itself; assay: as above

B1: Nt14-3-3a protein tagged with Strep-tag II (natural protein, UniProt Q75ZE5 1-255, looked up)
chain: MASPREENVYLAKLAEQAERYEEMVEFMEKVVGAGDDELTVEERNLLSVAYKNVIGARRASWRIISSIEQKEESRGNEDHVASIKTYRSKIESELTSICNGILKLLDSKLIGTAATGDSKVFYLKMKGDYYRYLAEFKTGAERKEAAENTLSAYKSAQDIANVELAPTHPIRLGLALNFSVFYYEILNSPDRACNLAKQAFDEAIAELDTLGEESYKDSTLIMQLLRDNLTLWTSDMQDDGTDEIKEPSKAEEQQ
notes: 14-3-3a protein, Nt14-3-3a, GenBank BAD12168.1; also called 14-3-3 dimer; not shown: Strep-tag II, C-terminal, kept
stoichiometry N [1]: 2 14-3-3a per HopQ1 | stoichiometry N [2]: 2
